Assay results taken from patent US20230203202A1 (DRAGONFLY THERAPEUTICS, published 2023).

Assays:
[1] = molecular target: T1, human 5T4 on the cell surface (human, UniProt Q13641 32-420); experiment: cell-based or functional assay
T1 sequence (looked up): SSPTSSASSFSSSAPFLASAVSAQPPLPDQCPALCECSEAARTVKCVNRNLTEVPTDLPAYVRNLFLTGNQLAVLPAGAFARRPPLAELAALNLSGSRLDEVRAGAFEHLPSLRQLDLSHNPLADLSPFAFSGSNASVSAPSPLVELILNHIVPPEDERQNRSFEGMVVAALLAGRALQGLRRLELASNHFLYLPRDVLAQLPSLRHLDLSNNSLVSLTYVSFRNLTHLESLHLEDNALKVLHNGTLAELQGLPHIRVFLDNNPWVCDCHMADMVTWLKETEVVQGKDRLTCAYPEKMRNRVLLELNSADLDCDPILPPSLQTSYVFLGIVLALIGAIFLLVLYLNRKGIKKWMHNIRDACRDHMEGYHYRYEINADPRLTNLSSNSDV

[2] = molecular target: T1, human 5T4 on the cell surface; experiment: cell-based or functional assay; remark: listed apart in the source
[3] = molecular target: T1, human 5T4 on the cell surface; experiment: flow cytometry on H1975 cells (22,000 5T4 per cell)
[4] = molecular target: T2, human 5T4 (SPR and epitope mapping, construct not stated) (human, UniProt Q13641 32-355, limits assumed); experiment: SPR, h5T4 binding; sample stressed in acetate pH 4, 7 days 40 °C
T2 construct: also called h5T4
T2 sequence (looked up): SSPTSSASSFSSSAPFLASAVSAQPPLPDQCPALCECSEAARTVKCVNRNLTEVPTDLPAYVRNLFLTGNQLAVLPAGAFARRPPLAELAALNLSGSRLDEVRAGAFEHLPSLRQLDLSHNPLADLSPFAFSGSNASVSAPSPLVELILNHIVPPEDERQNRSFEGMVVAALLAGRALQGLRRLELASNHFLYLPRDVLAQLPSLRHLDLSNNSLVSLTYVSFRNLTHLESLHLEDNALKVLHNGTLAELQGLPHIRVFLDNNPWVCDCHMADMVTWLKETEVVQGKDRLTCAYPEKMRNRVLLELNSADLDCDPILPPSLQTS

[5] = molecular target: T2, human 5T4 (SPR and epitope mapping, …); experiment: SPR, Biacore 8K, 37 °C, TriNKET captured on anti-hFc chip, pH 6.0
Experimental: Briefly, SPR was performed using a Biacore 8K instrument at physiological temperature of 37° C. Briefly, human Fc specific antibodies were covalently immobilized at a density of about 8000-10000 resonance units (RU) on carboxy methyl dextran matrix of a CM5 biosensor chip to create an anti-hFc IgG chip. Samples were injected on the anti-hFc IgG chip at a flow rate of 10 μL/min for 60 seconds. Protein was serially diluted (300 nM-0.14 nM) in three-fold dilutions with running buffer and injected at a flow rate of 30 μl/min over the captured test articles. Association was monitored for 240-300 seconds, and dissociation was monitored for 300-900 seconds. Surfaces were regenerated between cycles with three pulses of 10 mM glycine-HCl (pH 1.7) injected for 20 seconds at 100 μL/min.

[6] = molecular target: T1, human 5T4 on the cell surface; experiment: cell binding assay on 5T4-expressing tumor cells (cell line not given)
[7] = molecular target: T1, human 5T4 on the cell surface; experiment: flow cytometry on primary lung cancer-associated fibroblasts (Donor #377913A1), fold over background

NK cell-mediated lysis of primary CAFs, EC50 (first column pair) [1]: 0.081 nM | NK cell-mediated lysis of primary CAFs, EC50 (second column pair) [1]: 0.19 nM | cynomolgus monkey NK cell activation in co-culture with H292 cells, EC50 [2]: 0.06 nM | cynomolgus monkey NK cell activation in co-culture with KYSE-30 cells, EC50 [2]: 0.06 nM | human NK cell activation in co-culture with H292 cells, EC50 [2]: 0.35 nM | human NK cell activation in co-culture with KYSE-30 cells, EC50 [2]: 0.13 nM | EC50 [3]: 1.9 nM | Kd [4]: 7.6 nM | koff [4]: 0.00091 s⁻¹ | kon [4]: 120000 M⁻¹ s⁻¹ | Kd [5]: 9.4 nM | koff [5]: 0.0012 s⁻¹ | kon [5]: 120000 M⁻¹ s⁻¹ | EC50 [6]: 3.42 nM | Max Fold Over Background (FOB) [6]: 82.8 fold over background | EC50 (read off the curve) [7]: ~4 nM
B1: AB1310/AB1783-TriNKET® (bispecific antibody, human IgG1, kappa)
chain: DIQLTQSPSSLSASVGDRVTITCRASQSVTTSNYNYMHWFQQKPGKAPKLLIKFASNLESGVPSRFSGSGSGTDFTLTISSLQPEDFATYYCQHSWEIPWTFGCGTKVEIKGGGGSGGGGSGGGGSGGGGSEVQLVESGGGLVKPGGSLRLSCAASRFTFSDFGMHWVRQAPGKCLEWVSYISSGSSTIYYADSVKGRFTISRDNAKNSLYLQMNSLRAEDTAVYYCASSQSYYRGTLDYWGQGTTVTVSSASDKTHTCPPCPAPELLGGPSVFLFPPKPKDTLMISRTPEVTCVVVDVSHEDPEVKFNWYVDGVEVHNAKTKPREEQYNSTYRVVSVLTVLHQDWLNGKEYKCKVSNKALPAPIEKTISKAKGQPREPRVYTLPPCRDELTKNQVSLTCLVKGFYPSDIAVEWESNGQPENNYKTTPPVLVSDGSFTLYSKLTVDKSRWQQGNVFSCSVMHEALHNHYTQKSLSLSPG
heavy: EVQLVESGGGLVKPGGSLRLSCAASGFTFSSYSMNWVRQAPGKGLEWVSSISSSSSYIYYADSVKGRFTISRDNAKNSLYLQMNSLRAEDTAVYYCARGAPIGAAAGWFDPWGQGTLVTVSSASTKGPSVFPLAPSSKSTSGGTAALGCLVKDYFPEPVTVSWNSGALTSGVHTFPAVLQSSGLYSLSSVVTVPSSSLGTQTYICNVNHKPSNTKVDKKVEPKSCDKTHTCPPCPAPELLGGPSVFLFPPKPKDTLMISRTPEVTCVVVDVSHEDPEVKFNWYVDGVEVHNAKTKPREEQYNSTYRVVSVLTVLHQDWLNGKEYKCKVSNKALPAPIEKTISKAKGQPREPQVCTLPPSRDELTENQVSLTCLVKGFYPSDIAVEWESNGQPENNYKTTPPVLDSDGSFFLYSWLTVDKSRWQQGNVFSCSVMHEALHNHYTQKSLSLSPG
light: DIQMTQSPSSVSASVGDRVTITCRASQGISSWLAWYQQKPGKAPKLLIYAASSLQSGVPSRFSGSGSGTDFTLTISSLQPEDFATYYCQQGVSFPRTFGGGTKVEIKRTVAAPSVFIFPPSDEQLKSGTASVVCLLNNFYPREAKVQWKVDNALQSGNSQESVTEQDSKDSTYSLSSTLTLSKADYEKHKVYACEVTHQGLSSPVTKSFNRGEC
notes: also called AB1310-TriNKET®; AB1783 10F10 F3′ LH H(T62S) CHO opt
